# Results taken from the supplement of paper PMC12042874.
# ± gives the uncertainty stated by the source.
# Experiment: amyloid nucleation score (Sup35N fusion, yeast selection) (log enrichment); library NNK1; higher = more nucleation; inactive = no reads after selection
# Method in brief: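 Sup35N fusions to peptides of 20 random codons were expressed in psi-negative yeast, induced 24 hours with 100 μM copper sulfate, and grown 7 days at 30°C on medium lacking adenine and uracil. Input and output plasmid inserts were sequenced by Illumina. The nucleation score is the DiMSum log enrichment of output over input reads, centred on the mode score of non-aggregating sequences. Sequences with under 100 input reads were excluded.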
row,Substance,amyloid nucleation score
1,GICLIAVVRGLIERGNGETE,0.206 ± 1.1
2,LNGVNLRGFTRWLVGCGDVD,0.141 ± 0.65
3,CELPGLGVLLVGGKPMEWLN,inactive
4,VAAFEIMHLLISCDNRCRFQ,0.337 ± 0.38
5,IRLRPERDLGVAWLCIGCKR,-0.314 ± 1.2
6,SYICLHYFCIQ,5.745 ± 0.055
7,PTLVRECFEALSVSDYPVPG,-0.674 ± 1.7
8,RRYFSLYLAGSLELMFAWVM,-1.79 ± 2.7
9,NFMIMKSCDRSSLCHFMSYC,7.436 ± 0.069
10,CYCWPTTKKIPFKSL,-0.739 ± 1.9
11,TNRPAPLPSYRTILCK,0.7 ± 0.97
12,ILQIYLMWQVW,4.85 ± 0.05
13,GRDDSGWPSVVVWSPGADQA,0.243 ± 0.56
14,MAVERLGSQVERDIRGWWRV,0.063 ± 0.59
15,FWRKENGYWLGFMPLVREGT,0.247 ± 0.35
16,IYWSP,0.569 ± 0.26
17,TVKHC,3.17 ± 0.14
18,WYCPATH,0.836 ± 0.97
19,FSFYLYGGSC,-1.47 ± 2.4
20,DILDSH,-0.824 ± 0.38
21,YALCKLSA,0.851 ± 0.79
22,FSARTTVENAEDRSFDNQLV,0.312 ± 0.4
